These results are taken from publication PMC10397247.

What all share (test): two-hybrid library CCmax;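 also: natural log of median RNA to DNA barcode read ratio; higher means stronger binding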
One test concerns the target T1, 4H3493-AA.
T1 chain: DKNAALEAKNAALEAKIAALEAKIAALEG
The following applies: mean of both orientations.

Another test addresses T2, 4H2219-AA.
T2 chain: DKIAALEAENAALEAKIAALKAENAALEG
To be noted: mean of both orientations.

A further test addresses T3, 4H688-AA.
T3 chain: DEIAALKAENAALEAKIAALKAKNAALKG

For another test, the target named is T4, 4H1639-AA.
T4 chain: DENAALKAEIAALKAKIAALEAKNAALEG

The next test concerns the target T5, 4H406-AA.
T5 chain: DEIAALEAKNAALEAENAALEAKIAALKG
The following applies: mean of both orientations.

In the next test the target is T6, 4H3381-AA.
T6 chain: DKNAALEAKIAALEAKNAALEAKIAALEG
The following applies: mean of both orientations.

In another test the target is T7, 4H376-AA.
T7 chain: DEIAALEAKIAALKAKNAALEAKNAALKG
The following applies: mean of both orientations.

The target of a further test is T8, 4H249-AA.
T8 chain: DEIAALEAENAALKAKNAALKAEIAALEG
The following applies: mean of both orientations.

The next test has as its target T9, 4H2611-AA.
T9 chain: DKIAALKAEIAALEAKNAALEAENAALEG
The following applies: mean of both orientations.

In a further test the target is T10, 4H2592-AA.
T10 chain: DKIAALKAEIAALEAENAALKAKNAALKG
To be noted: mean of both orientations.

The target in another test is T11, 4H2504-AA.
T11 chain: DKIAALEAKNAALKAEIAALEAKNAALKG
To be noted: mean of both orientations.

For a further test, the target named is T12, 4H3001-AA.
T12 chain: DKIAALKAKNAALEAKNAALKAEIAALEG
The following applies: mean of both orientations.

Another test has as its target T13, 4H347-AA.
T13 chain: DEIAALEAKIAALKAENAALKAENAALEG
To be noted: mean of both orientations.

The target of another test is T14, 4H3340-AA.
T14 chain: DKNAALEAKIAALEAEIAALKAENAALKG
To be noted: mean of both orientations.

The target of the next test is T15, 4H2774-AA.
T15 chain: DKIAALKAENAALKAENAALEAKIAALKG
To be noted: mean of both orientations.

For another test, the target named is T16, 4H1738-AA.
T16 chain: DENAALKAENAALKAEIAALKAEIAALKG
The following applies: mean of both orientations.

A further test concerns the target T17, 4H963-AA.
T17 chain: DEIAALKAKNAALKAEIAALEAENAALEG
To be noted: mean of both orientations.

B1: 4H1639-AA (peptide)
chain: DENAALKAEIAALKAKIAALEAKNAALEG
As for B1, the interaction score in the test with 4H3493-AA was -1.73; in the test with 4H2219-AA it was -1.88; with 4H688-AA, -1.18; with 4H1639-AA it was 1.24; in the test with 4H406-AA it was -1.63; with 4H3381-AA it was -1.7. The interaction score was -1.37 in the test with 4H376-AA; -1.52 with 4H249-AA; -1.52 in the test with 4H2611-AA; -1.85 in the test with 4H2592-AA; -1.77 with 4H2504-AA; -2.12 with 4H3001-AA. Moreover, the interaction score was -1.41 with 4H347-AA; -1.63 with 4H3340-AA; -1.35 in the test with 4H2774-AA; -1.64 with 4H1738-AA; -2.16 with 4H963-AA.
